PMC3508374 (Molecular microbiology, 2012)
Substitutions are numbered along the chain they refer to. Numbers in names are those of the source.

B1: Bacillus subtilis Fur (ferric uptake regulator), wild type (natural protein, UniProt P54574 1-149, looked up)
chain: MENRIDRIKKQLHSSSYKLTPQREATVRVLLENEEDHLSAEDVYLLVKEKSPEIGLATVYRTLELLTELKVVDKINFGDGVSRYDLRKEGAAHFHHHLVCMECGAVDEIEEDLLEDVEEIIERDWKFKIKDHRLTFHGICHRCNGKETE
B2: Bacillus subtilis Fur H95A (site 2 mutant) (natural protein, UniProt P54574 1-149, looked up)
chain: B1 chain with H95A
B3: Bacillus subtilis Fur H132A (site 3 mutant) (natural protein, UniProt P54574 1-149, looked up)
chain: B1 chain with H132A
B4: Bacillus subtilis Fur H96A (site 3 mutant) (natural protein, UniProt P54574 1-149, looked up)
chain: B1 chain with H96A
B5: Bacillus subtilis Fur H97A (site 2 mutant) (natural protein, UniProt P54574 1-149, looked up)
chain: B1 chain with H97A
B6: Bacillus subtilis Fur H37A (site 2 mutant) (natural protein, UniProt P54574 1-149, looked up)
chain: B1 chain with H37A

Target: the molecule itself
Assay: SEC

Stoichiometry N, 2:
B1
B2
B3
B4
B5
B6
